The target in data set [1] is human B3GNT2 luminal domain (construct of the analytical size exclusion chromatography, limits not told) (human). Put plainly: SEC; analytical size exclusion chromatography, Superdex 200 10/300, 20 mM Hepes-NaOH pH 7.5 with 150 mM NaCl (buffer C) or 250 mM NaCl, 50 mM imidazole, 1 mM MgCl2, 0.5 mM DTT (buffer D); Bio-Rad molecular weight standards. Background: In gel filtration, larger molecules generally elute earlier.

For data set [2], the target named is T1, β1,3-N-acetylglucosaminyltransferase 2 (B3GNT2) (Homo sapiens, UniProt Q9NY97).
T1 construct: luminal domain, Lys45-Cys397 (crystal)
T1 sequence (Q9NY97 45-397): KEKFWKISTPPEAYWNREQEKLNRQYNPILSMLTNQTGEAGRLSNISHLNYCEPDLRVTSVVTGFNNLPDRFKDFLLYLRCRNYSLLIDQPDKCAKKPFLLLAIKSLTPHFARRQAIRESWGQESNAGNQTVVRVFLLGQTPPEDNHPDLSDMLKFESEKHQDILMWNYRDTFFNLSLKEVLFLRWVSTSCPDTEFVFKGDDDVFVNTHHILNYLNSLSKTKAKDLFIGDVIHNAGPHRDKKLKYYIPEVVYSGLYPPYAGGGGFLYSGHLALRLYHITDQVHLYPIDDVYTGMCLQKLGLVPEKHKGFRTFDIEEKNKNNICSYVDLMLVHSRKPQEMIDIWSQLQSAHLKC
The data set can be described thus: crystal structure ([…] Å) and SPR steady-state affinity. It is filed as binding.

Data set [3] deals with T1, β1,3-N-acetylglucosaminyltransferase 2 (B3GNT2). The data set can be described thus: crystal structure ([…] Å, soak) and SPR steady-state affinity. Type of data set: binding.
Data set [4] has as its target T2, β1,3-N-acetylglucosaminyltransferase 2 (B3GNT2) (Homo sapiens, UniProt Q9NY97).
T2 construct: luminal domain, Lys45-Cys397 (crystal); Lys29-Cys397 (kinetics)
T2 sequence (Q9NY97 29-397): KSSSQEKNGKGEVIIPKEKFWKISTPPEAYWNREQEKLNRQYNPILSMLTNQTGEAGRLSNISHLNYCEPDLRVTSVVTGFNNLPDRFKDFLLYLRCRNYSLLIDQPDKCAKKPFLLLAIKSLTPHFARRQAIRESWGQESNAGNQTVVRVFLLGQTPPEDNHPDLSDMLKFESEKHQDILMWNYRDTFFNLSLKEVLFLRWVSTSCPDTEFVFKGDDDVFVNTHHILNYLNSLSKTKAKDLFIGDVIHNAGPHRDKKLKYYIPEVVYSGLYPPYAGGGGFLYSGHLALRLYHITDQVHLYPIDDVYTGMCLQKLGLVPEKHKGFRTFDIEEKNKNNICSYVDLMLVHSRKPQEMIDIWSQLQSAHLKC
Put plainly: crystal structure ([…] Å, soak); binary-complex dissociation constant from UDP-Glo kinetics. It is filed as biochemical.

Data set [5] concerns the molecule itself. The data set can be described thus: crystal structure; sitting/hanging-drop vapor diffusion at 4 °C, 24% PEG1500, 20% glycerol; apo, soaked or co-crystallised with UDP, UDP-GlcNAc, LacNAc; dimer related by crystallographic symmetry.

For “human B3GNT2 luminal domain (construct of the analytical size exclusion chromatography, limits not told) (domain or fragment)”, the stoichiometry N in data set [1] turned out to be 2. `O=c1ccn([C@@H]2O[C@H](COP(=O)(O)OP(=O)(O)O)[C@@H](O)[C@H]2O)c(=O)[nH]1` [UDP] yielded a Kd in data set [2] of about 260 µM. The molecule `CC(=O)N[C@H]1[C@@H](OP(=O)(O)OP(=O)(O)OC[C@H]2O[C@@H](n3ccc(=O)[nH]c3=O)[C@H](O)[C@@H]2O)O[C@H](CO)[C@@H](O)[C@@H]1O` [UDP-GlcNAc] showed a Kd in data set [3] of about 140 µM.

In data set [4], `CC(=O)N[C@H]1C(O)O[C@H](CO)[C@@H](O[C@@H]2O[C@H](CO)[C@H](O)[C@H](O)[C@H]2O)[C@@H]1O` (stereo partly drawn) [LacNAc] showed a Kd of 8990 ± 1750 µM.

B1: human B3GNT2 luminal domain (Lys45–Cys397) (domain or fragment, UniProt Q9NY97 45-397, looked up)
chain: T1 sequence (Q9NY97 45-397)
modifications: N-glycans assigned at Asn127, Asn173 and Asn219
notes: human B3GNT2 (β-1,3-N-acetylglucosaminyltransferase 2), UniProt Q9NY97, luminal domain, residues Lys45–Cys397; Expressed with an N-terminal gp64 secretion signal peptide; 8×His tag cleaved by TEV protease; Used for all structures except the iodide derivative; also called B3GNT2 Lys45-Cys397; B3GNT2_apo; source: sf9 cells (baculovirus), secreted into medium, purified (Ni-NTA, size exclusion …)
As for B1, the binding result in data set [5] is recorded as “binds”.

B2: human B3GNT2 luminal domain (Ser31–Cys397) (domain or fragment, UniProt Q9NY97 31-397, looked up)
chain: SSQEKNGKGEVIIPKEKFWKISTPPEAYWNREQEKLNRQYNPILSMLTNQTGEAGRLSNISHLNYCEPDLRVTSVVTGFNNLPDRFKDFLLYLRCRNYSLLIDQPDKCAKKPFLLLAIKSLTPHFARRQAIRESWGQESNAGNQTVVRVFLLGQTPPEDNHPDLSDMLKFESEKHQDILMWNYRDTFFNLSLKEVLFLRWVSTSCPDTEFVFKGDDDVFVNTHHILNYLNSLSKTKAKDLFIGDVIHNAGPHRDKKLKYYIPEVVYSGLYPPYAGGGGFLYSGHLALRLYHITDQVHLYPIDDVYTGMCLQKLGLVPEKHKGFRTFDIEEKNKNNICSYVDLMLVHSRKPQEMIDIWSQLQSAHLKC
modifications: N-glycans assigned at Asn127, Asn173 and Asn219
notes: human B3GNT2 (β-1,3-N-acetylglucosaminyltransferase 2), UniProt Q9NY97, luminal domain, residues Ser31–Cys397; Expressed with an N-terminal gp64 secretion signal peptide; 8×His tag cleaved by TEV protease; Used for the iodide derivative structure (SAD phasing, 2.50 Å); also called B3GNT2 Ser31-Cys397; iodide derivative; source: sf9 cells (baculovirus), secreted into medium, purified (Ni-NTA, size …)
Turning to B2, the binding result in data set [5] is on record as “binds”.

Broadly, the stoichiometry N is the number of molecules, sites or subunits per partner or assembly. As usually defined, the Kd is the free concentration of one partner at which half of the binding sites on the other are occupied at equilibrium, for simple one-to-one binding.
